The target in experiment [1] is Thermus aquaticus RNAP β-subunit β1 domain (Taq β 17–139 –Gly–Gly– 334–395) (Thermus aquaticus) (UniProt Q9KWU7). In words: crystal structure.
Experiment [2] concerns the target Tth RNAP-β1 Q99R (Tth RNAP β-subunit residues 10–133), two-hybrid fusion (Thermus thermophilus) (UniProt Q8RQE9). In words: two-hybrid.
The target of experiment [3] is Tth RNAP β-subunit residues 10–133 (Tth RNAP-β1), two-hybrid fusion (Thermus thermophilus) (UniProt Q8RQE9). In words: two-hybrid.
For experiment [4], the target named is Eco RNAP β-subunit residues 19–142 (Eco RNAP-β1), two-hybrid fusion (Escherichia coli) (UniProt P0A8V2). In words: two-hybrid.
The target in experiment [5] is T1, Tth RNAP-β1 Q99R (Tth RNAP β-subunit residues 10–133), two-hybrid fusion (Thermus thermophilus, UniProt Q8RQE9 10-133, Q99R).
T1 sequence (looked up): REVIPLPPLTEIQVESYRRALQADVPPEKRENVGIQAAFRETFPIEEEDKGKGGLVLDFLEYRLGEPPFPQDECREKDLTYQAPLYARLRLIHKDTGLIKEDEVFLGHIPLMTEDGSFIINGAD
In words: two-hybrid.

The target in experiment [6] is Eco RNAP β-subunit residues 19–142 (Eco RNAP-β1), two-hybrid fusion (Escherichia coli, UniProt P0A8V2 19-142). In words: two-hybrid.

As to “Thermus thermophilus HB27 TRCF RNAP interacting domain (Tth TRCF–RID, residues 321–387) (domain or fragment)”, the stoichiometry N in experiment [1] was determined as 1.
In turn, “Tth TRCF residues 314–444 (Tth TRCF–RID), two-hybrid fusion (domain or fragment)” had a fold defect of the two-hybrid signal against wild-type Tth RNAP-β1 in experiment [2] of 2 fold.
In experiment [3], “Tth TRCF–RID R341L (Tth TRCF residues 314–444), two-hybrid fusion (domain or fragment)” showed a fold defect of the two-hybrid signal against wild-type Tth TRCF–RID of 2 fold. The molecule further displayed a fold change of the two-hybrid signal against wild-type Tth TRCF–RID in experiment [4] of 2 fold.

B1: Eco TRCF residues 472–603 (Eco TRCF–RID), two-hybrid fusion (domain or fragment, Escherichia coli, UniProt P30958 472-603, looked up)
chain: RNLAELHIGQPVVHLEHGVGRYAGMTTLEAGGITGEYLMLTYANDAKLYVPVSSLHLISRYAGGAEENAPLHKLGGDAWSRARQKAAEKVRDVAAELLDIYAQRAAKEGFAFKHDREQYQLFCDSFPFETTP
Consider B1, for which the “fold change of the two-hybrid signal against wild-type Tth RNAP-β1” value in experiment [5] was around 2 fold.

B2: Eco TRCF–RID L499R (Eco TRCF residues 472–603), two-hybrid fusion (domain or fragment, Escherichia coli, UniProt P30958 472-603, looked up)
chain: RNLAELHIGQPVVHLEHGVGRYAGMTTREAGGITGEYLMLTYANDAKLYVPVSSLHLISRYAGGAEENAPLHKLGGDAWSRARQKAAEKVRDVAAELLDIYAQRAAKEGFAFKHDREQYQLFCDSFPFETTP
B2: the “fold defect of the two-hybrid signal against wild-type Eco TRCF–RID” value in experiment [6] was around 10 fold.

Source of the values: paper PMC3001067 (Nucleic Acids Research, 2010).
